We go through 5 molecules from publication PMC3549248, “Charcot–Marie–Tooth type 2B disease-causing RAB7A mutant proteins show altered interaction with the neuronal intermediate filament peripherin” (Acta Neuropathologica, 2012).

The target of one assay is T1, His-tagged RAB7A Q67L (UniProt P18067 1-207, Q67L).
T1 construct: RAB7A constitutively active mutant, from E. coli; also called constitutively active RAB7A Q67L mutant
Description: pull-down; 20 μg purified His-tagged RAB7A bound to NiNTA resin, incubated with Neuro2A cell extracts at 4 °C for 1 h; blot for peripherin. The following applies: one partner purified.

A further assay concerns the target T2, His-tagged RAB7A N161T (UniProt P18067 1-207, N161T).
T2 construct: RAB7A with a CMT2B disease mutation, from E. coli; The pull-down text says 'the CMT2B RAB7A mutants'; also called CMT2B RAB7A mutant N161T
The assay is described as above. The following applies: one partner purified.

Another assay concerns the target T3, His-tagged RAB7A K157N (UniProt P18067 1-207, K157N).
T3 construct: RAB7A with a CMT2B disease mutation, from E. coli; The pull-down text says 'the CMT2B RAB7A mutants'; also called CMT2B RAB7A mutant K157 N
Described as above. The following applies: one partner purified.

The target of the next assay is T4, His-tagged RAB7A V162M (UniProt P18067 1-207, V162M).
T4 construct: RAB7A with a CMT2B disease mutation, from E. coli; The pull-down text says 'the CMT2B RAB7A mutants'; also called CMT2B RAB7A mutant V162 M
The description is as above. The following applies: one partner purified.

The target of the next assay is T5, His-tagged RAB7A L129F (UniProt P18067 1-207, L129F).
T5 construct: RAB7A with a CMT2B disease mutation, from E. coli; The pull-down text says 'the CMT2B RAB7A mutants'; also called CMT2B RAB7A mutant L129F
The description is as above. The settings on record: one partner purified.

The next assay concerns the target T6, HA-tagged RAB7A K157N (UniProt P18067 1-207, K157N).
T6 construct: RAB7A with a CMT2B disease mutation; plasmid described previously; also called disease-causing mutant; source: Neuro2A or PC12 cells, transfected, in lysate
The assay can be described thus: co-IP; Neuro2A cells transfected with HA- or MYC-tagged RAB7A; RIPA lysate; anti-HA or anti-MYC resin 1 h at 4 °C; blot for endogenous peripherin. The following applies: partners not purified.

Another assay deals with T7, HA-tagged RAB7A V162M (UniProt P18067 1-207, V162M).
T7 construct: RAB7A with a CMT2B disease mutation; plasmid described previously; also called disease-causing mutant; source: Neuro2A or PC12 cells, transfected, in lysate
The assay is described as above. The following applies: partners not purified.

A further assay deals with T8, HA-tagged RAB7A N161T (UniProt P18067 1-207, N161T).
T8 construct: RAB7A with a CMT2B disease mutation; plasmid described previously; also called disease-causing mutant; source: Neuro2A or PC12 cells, transfected, in lysate
Described as above. The settings on record: partners not purified.

For a further assay, the target named is T9, HA-tagged RAB7A L129F (UniProt P18067 1-207, L129F).
T9 construct: RAB7A with a CMT2B disease mutation; plasmid described previously; also called disease-causing mutant; source: Neuro2A or PC12 cells, transfected, in lysate
The assay is described as above. The settings on record: partners not purified.

For assay [1], the target named is T10, pGADT7Rec-peripherin, P41219.
T10 chain: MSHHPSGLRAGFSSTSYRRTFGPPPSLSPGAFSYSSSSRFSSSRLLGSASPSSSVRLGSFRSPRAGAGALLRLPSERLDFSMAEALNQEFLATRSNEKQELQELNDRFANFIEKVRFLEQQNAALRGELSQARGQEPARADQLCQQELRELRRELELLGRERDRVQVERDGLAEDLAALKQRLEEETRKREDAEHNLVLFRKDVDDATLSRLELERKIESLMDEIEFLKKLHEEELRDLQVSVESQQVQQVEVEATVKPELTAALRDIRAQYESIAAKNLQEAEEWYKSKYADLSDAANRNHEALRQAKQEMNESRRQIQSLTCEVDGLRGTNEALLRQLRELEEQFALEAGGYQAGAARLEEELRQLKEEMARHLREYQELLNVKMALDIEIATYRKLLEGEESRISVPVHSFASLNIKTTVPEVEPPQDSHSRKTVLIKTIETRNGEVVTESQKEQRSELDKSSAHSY
The assay can be described thus: yeast two-hybrid β-galactosidase liquid assay. The settings on record: chain shown with the change; ONPG as substrate; parent: est. 80; read off a plot.

Positions count from the first letter of the chain named. Numbers in names are those of the source.

B1: peripherin (endogenous, Neuro2A cells) (natural protein, mouse (endogenous in Neuro2A), UniProt P15331 1-475, looked up)
chain: MPSSASMSHHHSSGLRSSISSTSYRRTFGPPPSLSPGAFSYSSSSRFSSSRLLGSGSPSSSARLGSFRAPRAGALRLPSERLDFSMAEALNQEFLATRSNEKQELQELNDRFANFIEKVRFLEQQNAALRGELSQARGQEPARADQLCQQELRELRRELELLGRERDRVQVERDGLAEDLAALKQRLEEETRKREDAEHNLVLFRKDVDDATLSRLELERKIESLMDEIEFLKKLHEEELRDLQVSVESQQVQQVEVEATVKPELTAALRDIRAQYENIAAKNLQEAEEWYKSKYADLSDAANRNHEALRQAKQEMNESRRQIQSLTCEVDGLRGTNEALLRQLRELEEQFALEAGGYQAGAARLEEELRQLKEEMARHLREYQELLNVKMALDIEIATYRKLLEGEESRISVPVHSFASLSLKTTVPEMEPLQDSHSKKMVLIRTIETRDGEKVVTESQKEQHSDLDKSSIHSY
notes: peripherin endogenous in mouse Neuro2A neuroblastoma cells, detected with anti-peripherin antibodies; main form of 58 kDa (Per-58); also called Per-58; source: endogenous, Neuro2A lysate
As for B1, the “pulled-down peripherin relative to RAB7A wt” value with His-tagged RAB7A Q67L, in the assay with His-tagged RAB7A N161T, with His-tagged RAB7A K157N, with His-tagged RAB7A V162M and with His-tagged RAB7A L129F was 2 fold of RAB7A wt in each case. The “co-immunoprecipitated peripherin relative to RAB7A wt” value in the assay with HA-tagged RAB7A K157N, with HA-tagged RAB7A V162M, with HA-tagged RAB7A N161T and with HA-tagged RAB7A L129F was about 60 % more than RAB7A wt throughout.

B2: pGBKT7-RAB7A wt, P18067 V162M (protein)
chain: MTSRKKVLLKVIILGDSGVGKTSLMNQYVNKKFSNQYKATIGADFLTKEVMVDDRLVTMQIWDTAGQERFQSLGVAFYRGADCCVLVFDVTAPNTFKTLDSWRDEFLIQASPRDPENFPFVVLGNKIDLENRQVATKRAQAWCYSKNNIPYFETSAKEAINMEQAFQTIARNALKQETEVELYNEFPEPIKLDKNDRAKTSAESCSC
For the molecule B2, in assay [1], the response (relative units) was 99.

B3: pGBKT7-RAB7A wt, P18067 N161T (protein)
chain: B2 chain with N161T, M162V
Regarding B3, the response (relative units) in assay [1] is 102.

B4: pGBKT7-RAB7A wt, P18067 T22N (protein)
chain: B2 chain with T22N, M162V
As to B4, the response (relative units) in [1] was 115.

B5: pGBKT7-RAB7A wt, P18067 K157N (protein)
chain: B2 chain with K157N, M162V
Regarding B5, in assay [1], the response (relative units) turned out to be 98.
